Reference: the supplement of paper PMC9233669
This sample holds only a part of the variants without activity.

Key:
biotinyl-Val-oxazolone = test: self-aminoacylation, catalytic enhancement (BVO) (fold over background); higher = more active; k-Seq, kA / k0A0; sequences stand for … in GGGAAUGGAUCCACAUCUACGAAUUC…UUCACUGCAGACUUGACGAAGCUG
How it was run: (§1)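 Catalytic enhancement equals the median kA over the uncatalyzed rate, the latter read from the low-activity peak of a bimodal Gaussian fit. Values of kA came from fitting each sequence's fraction reacted to a pseudo-first-order model, with 1000 bootstraps. Reacted RNA was captured with streptavidin and quantified by triplicate qPCR and Illumina sequencing after 90 minutes at room temperature with 2–1250 μM biotinyl-aminoacyl-oxazolone and 0.43 μM mutagenized RNA pools bearing a 21-nt variable region.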

biotinyl-Met-oxazolone = test: self-aminoacylation, catalytic enhancement (BMO) (fold over background); higher = more active; k-Seq, kA / k0A0; sequences stand for … in GGGAAUGGAUCCACAUCUACGAAUUC…UUCACUGCAGACUUGACGAAGCUG
How it was run: as §1

biotinyl-Phe-oxazolone = test: self-aminoacylation, catalytic enhancement (BFO) (fold over background); higher = more active; k-Seq, kA / k0A0; sequences stand for … in GGGAAUGGAUCCACAUCUACGAAUUC…UUCACUGCAGACUUGACGAAGCUG
How it was run: as §1

biotinyl-Trp-oxazolone = test: self-aminoacylation, catalytic enhancement (BWO) (fold over background); higher = more active; k-Seq, kA / k0A0; sequences stand for … in GGGAAUGGAUCCACAUCUACGAAUUC…UUCACUGCAGACUUGACGAAGCUG
How it was run: as §1

biotinyl-Ile-oxazolone = test: self-aminoacylation, catalytic enhancement (BIO) (fold over background); higher = more active; k-Seq, kA / k0A0; sequences stand for … in GGGAAUGGAUCCACAUCUACGAAUUC…UUCACUGCAGACUUGACGAAGCUG
How it was run: as §1

biotinyl-Leu-oxazolone = test: self-aminoacylation, catalytic enhancement (BLO) (fold over background); higher = more active; k-Seq, kA / k0A0; sequences stand for … in GGGAAUGGAUCCACAUCUACGAAUUC…UUCACUGCAGACUUGACGAAGCUG
How it was run: as §1

| Sequence | self-aminoacylation (biotinyl-Val-oxazolone) | self-aminoacylation (biotinyl-Met-oxazolone) | self-aminoacylation (biotinyl-Phe-oxazolone) | self-aminoacylation (biotinyl-Trp-oxazolone) | self-aminoacylation (biotinyl-Ile-oxazolone) | self-aminoacylation (biotinyl-Leu-oxazolone) |
| --- | --- | --- | --- | --- | --- | --- |
| AUUCACGUAGGUCGUCGGGUG [Fam2.2 aminoacylation ribozyme variant] | 3.81 | 2.48 | 9.34 | 2.44 | 2.61 | 2.35 |
| AUUCACCCAGGUCAUCGGGAG [Fam2.2 aminoacylation ribozyme variant] | 1.48 | 1.28 | 0.732 | 1.47 | 1.22 | 1.28 |
| AUUACCUUGGUCAUGGAGUGA [Fam2.1 aminoacylation ribozyme variant] | 2.72 | 4.16 | 4.26 | 5.57 | 2.97 | 4.42 |
| ACACACUCCAAGCAAUCGGUC [Fam1B.1 aminoacylation ribozyme variant] | 0.924 | 0.768 | 1.92 | 0.999 | 0.959 | 0.864 |
| UAGAUUGCUAAUAGUCGCAAG [Fam3.1 aminoacylation ribozyme variant] | 1.19 | 1.19 | 1.77 | 1.13 | 1.19 | 1.16 |
| CCAGACUUCACGCAAUCGGUC [Fam1B.1 aminoacylation ribozyme variant] | 1.76 | 1.79 | 4.39 | 1.65 | 1.64 | 1.6 |
| AUUACCCUGUUCAUCUAGUGA [Fam2.1 aminoacylation ribozyme variant] | 7.03 | 16.4 | 86.2 | 17.3 | 6.08 | 14.8 |
| AAGUUUGCUUAUAGUCGCAUG [Fam3.1 aminoacylation ribozyme variant] | 0.999 | 0.857 | 1.33 | 0.976 | 0.918 | 0.926 |
| AUUGGCCUGGUCAUCGAGUGA [Fam2.1 aminoacylation ribozyme variant] | 4.31 | 6.17 | 30.7 | 9.15 | 4.1 | 7.35 |
| AAGUUUACUAAUAGUCGCAUG [Fam3.1 aminoacylation ribozyme variant] | 1.13 | 1.25 | 2.25 | 1.68 | 1.49 | 1.34 |
| ACUAUCCUGGUCAUCGAGUGA [Fam2.1 aminoacylation ribozyme variant] | 3.62 | 6.19 | 18.4 | 8.06 | 3.7 | 6.46 |
| CUACUGCAAACAAUCGCUCUG [Fam1A.1 aminoacylation ribozyme variant] | 1.08 | 0.898 | 3.05 | 0.702 | 1.2 | 1.2 |
| AUUCAGCUAGGUCAUCGGGUU [Fam2.2 aminoacylation ribozyme variant] | 2.79 | 3.1 | 18.7 | 3.38 | 2.81 | 2.5 |
| AAGUUUGCUAUUCGUCGCAAG [Fam3.1 aminoacylation ribozyme variant] | 0.862 | 1.23 | 0.857 | 0.872 | 0.985 | 0.902 |
| AAGGUUGCUAAGAGUCGCAAG [Fam3.1 aminoacylation ribozyme variant] | 1.03 | 0.884 | 1.9 | 1.57 | 1.17 | 1.1 |
| AUUACCUUGGUCCUCGAGUGA [Fam2.1 aminoacylation ribozyme variant] | 2.11 | 3.05 | 17.8 | 4.39 |  | 3.95 |
| AAAUCUGCUAAUAGUCGCAAG [Fam3.1 aminoacylation ribozyme variant] | 2.04 | 2.01 | 19.3 | 9.08 | 2.48 |  |
| AACUUUGCUAAUACUCGCAAG [Fam3.1 aminoacylation ribozyme variant] |  |  | 2.02 |  | 2.19 |  |
| CCACACUUCAAGCAAUGGGUG [Fam1B.1 aminoacylation ribozyme variant] | 2.24 | 2.61 | 10.7 | 2.39 |  | 3 |
| AUUACCCUGAUCAGCGAGUGA [Fam2.1 aminoacylation ribozyme variant] | 2.3 | 2.71 | 3.1 | 4.93 |  | 2.74 |
| AAGCAUGCUAAUAGUCGCAAG [Fam3.1 aminoacylation ribozyme variant] |  | 2.61 | 6.71 | 2.61 | 2.36 |  |
| AUUCACUUAGGUCAGCGGGUG [Fam2.2 aminoacylation ribozyme variant] |  | 2.99 | 15.6 | 2.75 | 2.5 | 3.88 |
| AGUACCCUGGUCAUCGUGUGA [Fam2.1 aminoacylation ribozyme variant] | 2.06 | 3.07 | 16.3 | 3.88 |  | 3.43 |
| AUUACCCUGGCCUUCGAGUGA [Fam2.1 aminoacylation ribozyme variant] | 2.53 | 3.21 | 17.9 | 5.17 |  | 4.36 |
| AUUCACCUAGGUCAACGAGUG [Fam2.2 aminoacylation ribozyme variant] |  | 2.6 | 5.07 |  | 2.07 | 3.76 |
| CCACACUUCAAGCAAACGGCC [Fam1B.1 aminoacylation ribozyme variant] | 3.77 |  |  | 3.66 | 2.6 | 3.75 |
| GAGUUUCCUAAUAGUCGCAAG [Fam3.1 aminoacylation ribozyme variant] | 2.08 |  | 2.31 | 2.26 | 2.65 |  |

| Sequence | self-aminoacylation (biotinyl-Val-oxazolone) | self-aminoacylation (biotinyl-Met-oxazolone) | self-aminoacylation (biotinyl-Phe-oxazolone) | self-aminoacylation (biotinyl-Trp-oxazolone) | self-aminoacylation (biotinyl-Ile-oxazolone) | self-aminoacylation (biotinyl-Leu-oxazolone) |
| --- | --- | --- | --- | --- | --- | --- |
| CCACACUUAAAGCAAUCGGGC [Fam1B.1 aminoacylation ribozyme variant] |  |  |  |  | 2.19 |  |
| CCACACUUCUAGCAAUCGGCC [Fam1B.1 aminoacylation ribozyme variant] | 2.2 | 2.54 |  | 2.72 |  | 2.06 |
| CCCCACUUCAACCAAUCGGUC [Fam1B.1 aminoacylation ribozyme variant] |  |  | 101 | 53.6 | 2.37 | 2.99 |
| AUUCACCUUGGUCAUCGGGGG [Fam2.2 aminoacylation ribozyme variant] | 2.04 | 2.04 | 13 | 2.28 |  | 2.84 |
| AAUUUUGCUAAAAGUCGCAAG [Fam3.1 aminoacylation ribozyme variant] |  |  | 2.77 | 3.11 | 2.1 | 2.38 |
| ACGUCUGCUAAUAGUCGCAAG [Fam3.1 aminoacylation ribozyme variant] |  | 2.12 | 32.2 | 8.61 | 2.02 |  |
| AAUACCCUCGUCAUCGAGUGA [Fam2.1 aminoacylation ribozyme variant] |  | 2.53 | 3.81 | 3.7 | 2.08 | 3 |
| AAGUUUGCCAAUAGUCGCAGG [Fam3.1 aminoacylation ribozyme variant] | 2.08 | 2.73 | 15.8 | 3.26 |  | 2.33 |
| AAGUUCGCUAAUAGUCGCACG [Fam3.1 aminoacylation ribozyme variant] |  |  | 2.18 |  | 2.34 | 2.35 |
| AUUACCCUGGUCACCGAGUAA [Fam2.1 aminoacylation ribozyme variant] | 2.34 | 2.62 | 10.1 |  |  | 2.46 |
| CCACACUUCAAGCAUUCGGUU [Fam1B.1 aminoacylation ribozyme variant] | 2.64 | 2.33 | 7.27 |  | 2.29 | 2.35 |
| CCACAAUUCAAGCAAUCGCUC [Fam1B.1 aminoacylation ribozyme variant] | 2.12 | 2.18 |  |  | 2.51 | 2.38 |
| GCACACAUCAAGCAAUCGGUC [Fam1B.1 aminoacylation ribozyme variant] |  |  | 3.12 | 2.22 | 2.01 |  |
| CAGUUUGCUAAUAGUCGCAAA [Fam3.1 aminoacylation ribozyme variant] |  |  | 4.61 |  | 2.35 |  |
| CAGUCUGCUAAUAGUCGCAAG [Fam3.1 aminoacylation ribozyme variant] |  | 2.86 | 28.2 | 9.53 | 2.14 |  |
| AUUACUCUGGCCAUCGAGUGA [Fam2.1 aminoacylation ribozyme variant] |  | 3.15 | 11.7 | 4.19 | 2.06 | 3.55 |
| AUUCUCCUAGGUCAUCGGCUG [Fam2.2 aminoacylation ribozyme variant] | 2.51 | 2.49 | 9.44 |  | 2.19 | 2.54 |
| AAAUUUGCUAACAGUCGCAAG [Fam3.1 aminoacylation ribozyme variant] |  |  | 2.2 |  | 2.02 |  |
| AAGUUAGCCAAUAGUCGCAAG [Fam3.1 aminoacylation ribozyme variant] |  | 2.22 | 2.56 | 2.28 | 2.02 | 2.35 |
| CCACACUUCAAGCAAUUGGUG [Fam1B.1 aminoacylation ribozyme variant] |  | 3.03 | 5.72 | 2.84 | 2.28 | 3.62 |
| AUUCCCCUGGUCAUCGAGUGG [Fam2.1 aminoacylation ribozyme variant] | 2.18 | 2.48 |  | 3.73 | 2.29 | 3.15 |
| AAGCUUGCUAAUAUUCGCAAG [Fam3.1 aminoacylation ribozyme variant] | 2.13 |  |  | 3.38 | 2.47 |  |
| AUUACACUGGUCAUAGAGUGA [Fam2.1 aminoacylation ribozyme variant] | 2.13 | 3.15 | 8.72 | 3.92 |  | 3.62 |
| CCACACUUCAAGCAGUCGGCC [Fam1B.1 aminoacylation ribozyme variant] | 2.84 | 2.22 | 4.85 |  |  | 2.47 |
| AUUACCCUGGUCAGCGAGCGA [Fam2.1 aminoacylation ribozyme variant] | 2.08 | 2.34 |  |  |  | 2.33 |
| AUUCAACUAGGACAUCGGGUG [Fam2.2 aminoacylation ribozyme variant] |  | 2.42 | 17 | 2.79 | 2.05 | 3.38 |
